Source: PMC4609913

Key:
[1] = target: recombinant ADAM12 (A Disintegrin and Metalloproteinase 12), activated by furin (UniProt O43184)
[2] = target: recombinant ADAM12 (A Disintegrin and Metalloproteinase 12), activated by furin (UniProt O43184); assay: enzyme inhibition assay (fluorogenic FRET-peptide protease activity); 6-point dilution of PA12 incubated with 5 nM recombinant ADAM12 for 10 min before the substrate; 15 uM Dabcyl-LAQAhomopheRSK(FAM)-NH2, 25 mM Tris pH 8, 10^-3% Brij-35, 10 mM CaCl2, 15 uM furin inhibitor 1, RT; Ki inferred from dose-response curves

Chain of recombinant ADAM12 (A Disintegrin and Metalloproteinase 12), activated by furin (O43184 whole entry): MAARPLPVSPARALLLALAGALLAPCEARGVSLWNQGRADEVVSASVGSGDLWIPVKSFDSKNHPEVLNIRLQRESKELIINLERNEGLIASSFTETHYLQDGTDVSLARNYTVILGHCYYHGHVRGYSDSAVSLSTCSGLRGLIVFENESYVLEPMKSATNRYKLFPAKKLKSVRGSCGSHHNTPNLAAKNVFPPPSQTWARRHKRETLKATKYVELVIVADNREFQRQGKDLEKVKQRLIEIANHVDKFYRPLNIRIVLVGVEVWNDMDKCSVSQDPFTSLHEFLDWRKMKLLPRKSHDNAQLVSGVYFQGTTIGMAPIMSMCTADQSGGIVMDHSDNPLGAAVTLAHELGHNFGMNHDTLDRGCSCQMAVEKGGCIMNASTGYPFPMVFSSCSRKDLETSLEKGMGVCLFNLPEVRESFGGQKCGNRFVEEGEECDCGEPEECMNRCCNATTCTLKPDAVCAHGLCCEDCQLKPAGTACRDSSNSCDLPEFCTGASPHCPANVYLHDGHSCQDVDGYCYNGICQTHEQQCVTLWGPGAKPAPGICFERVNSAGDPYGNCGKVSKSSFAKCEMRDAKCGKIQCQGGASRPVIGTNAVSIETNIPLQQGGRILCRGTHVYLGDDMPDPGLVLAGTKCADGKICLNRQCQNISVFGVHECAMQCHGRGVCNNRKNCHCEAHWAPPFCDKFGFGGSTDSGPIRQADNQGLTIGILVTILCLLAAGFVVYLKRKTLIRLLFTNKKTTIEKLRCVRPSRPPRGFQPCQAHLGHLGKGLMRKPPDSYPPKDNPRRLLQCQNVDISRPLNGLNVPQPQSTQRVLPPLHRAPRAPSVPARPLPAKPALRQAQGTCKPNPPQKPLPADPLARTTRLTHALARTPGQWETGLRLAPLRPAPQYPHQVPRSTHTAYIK

B1: recombinant His-tagged human ADAM12 prodomain (amino acids 29-206) (domain or fragment)
chain: RGVSLWNQGRADEVVSASVGSGDLWIPVKSFDSKNHPEVLNIRLQRESKELIINLERNEGLIASSFTETHYLQDGTDVSLARNYTVILGHCYYHGHVRGYSDSAVSLSTCSGLRGLIVFENESYVLEPMKSATNRYKLFPAKKLKSVRGSCGSHHNTPNLAAKNVFPPPSQTWARRHK
- relative level of intact transmembrane HB-EGF on 12Z-HE cells (live-cell Myc immunostaining, flow cytometry) after 2 uM PA12 for 3 h [1]: 20%
- Ki [2]: 430 nM
